Two molecules from US20240392004A1 (IMMUNOWAKE, published 2024) can be followed below.

Bounds are passed on as bounds.

Holding throughout (assay): cell-based or functional assay
Test [1] addresses T1, IFN-γ receptor (IFNGR1 and IFNGR2) (UniProt P15260 18-489; P38484 22-337, limits assumed).
T1 sequence (looked up) 1: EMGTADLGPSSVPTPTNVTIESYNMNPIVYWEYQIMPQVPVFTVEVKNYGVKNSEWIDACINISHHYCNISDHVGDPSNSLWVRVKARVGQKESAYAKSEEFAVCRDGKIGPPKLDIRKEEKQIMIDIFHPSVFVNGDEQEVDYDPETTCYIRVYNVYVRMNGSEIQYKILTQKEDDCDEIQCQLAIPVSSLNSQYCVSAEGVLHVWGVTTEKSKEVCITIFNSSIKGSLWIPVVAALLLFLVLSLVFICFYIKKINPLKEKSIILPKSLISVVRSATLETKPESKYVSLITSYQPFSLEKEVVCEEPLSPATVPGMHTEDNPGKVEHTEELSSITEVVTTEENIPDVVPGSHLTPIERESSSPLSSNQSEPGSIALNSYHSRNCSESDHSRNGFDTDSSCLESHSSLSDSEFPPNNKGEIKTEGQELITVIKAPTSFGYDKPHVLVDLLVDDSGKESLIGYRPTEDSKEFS
T1 sequence (looked up) 2: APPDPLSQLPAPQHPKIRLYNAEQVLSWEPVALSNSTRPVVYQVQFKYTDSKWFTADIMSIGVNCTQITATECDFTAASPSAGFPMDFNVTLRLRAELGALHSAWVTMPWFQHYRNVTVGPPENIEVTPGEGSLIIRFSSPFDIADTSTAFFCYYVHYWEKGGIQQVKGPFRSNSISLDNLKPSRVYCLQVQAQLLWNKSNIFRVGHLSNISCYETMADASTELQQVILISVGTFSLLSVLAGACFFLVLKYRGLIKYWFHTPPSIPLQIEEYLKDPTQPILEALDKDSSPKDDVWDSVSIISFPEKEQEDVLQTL

The target in test [2] is T2, human TIGIT on HEK-Blue reporter cells (human, UniProt Q495A1 22-244).
T2 sequence (looked up): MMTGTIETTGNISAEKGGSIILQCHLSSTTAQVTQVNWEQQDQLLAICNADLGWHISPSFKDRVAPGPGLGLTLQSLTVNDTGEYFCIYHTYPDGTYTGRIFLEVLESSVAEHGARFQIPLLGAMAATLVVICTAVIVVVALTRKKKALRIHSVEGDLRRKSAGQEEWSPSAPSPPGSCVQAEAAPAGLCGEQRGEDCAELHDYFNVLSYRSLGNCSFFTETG

Test [3] concerns the target human IL-12 receptor complex (IL-12Rβ1 and IL-12Rβ2) (human, UniProt P42701 24-662; Q99665 24-862).

Chain of human IL-12 receptor complex (IL-12Rβ1 and IL-12Rβ2) (Q99665 24-862, chain 2 of 2, other chains not shown): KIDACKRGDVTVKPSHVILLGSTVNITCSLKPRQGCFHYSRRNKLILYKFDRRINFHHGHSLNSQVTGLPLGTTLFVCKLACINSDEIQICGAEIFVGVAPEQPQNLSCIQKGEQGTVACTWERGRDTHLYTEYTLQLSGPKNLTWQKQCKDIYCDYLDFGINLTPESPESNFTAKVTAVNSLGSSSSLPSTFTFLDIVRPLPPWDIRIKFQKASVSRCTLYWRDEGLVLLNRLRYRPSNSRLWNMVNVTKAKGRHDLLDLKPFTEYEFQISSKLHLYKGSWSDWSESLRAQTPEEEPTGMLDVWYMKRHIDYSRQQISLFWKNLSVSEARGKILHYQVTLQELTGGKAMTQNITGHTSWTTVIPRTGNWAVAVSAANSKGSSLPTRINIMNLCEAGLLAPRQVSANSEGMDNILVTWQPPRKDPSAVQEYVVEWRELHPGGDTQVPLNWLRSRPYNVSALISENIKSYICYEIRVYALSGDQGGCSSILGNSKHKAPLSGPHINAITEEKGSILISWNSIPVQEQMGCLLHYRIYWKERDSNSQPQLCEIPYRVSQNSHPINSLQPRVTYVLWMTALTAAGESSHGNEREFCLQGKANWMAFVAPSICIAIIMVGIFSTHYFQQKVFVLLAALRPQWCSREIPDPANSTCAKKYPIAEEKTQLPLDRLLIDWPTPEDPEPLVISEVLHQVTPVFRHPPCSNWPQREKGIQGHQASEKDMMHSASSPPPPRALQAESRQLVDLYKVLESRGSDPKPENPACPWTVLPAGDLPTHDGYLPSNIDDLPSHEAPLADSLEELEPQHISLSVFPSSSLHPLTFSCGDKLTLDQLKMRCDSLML

B1: IL-12(E59A/F60A)/IFN-γ(A23V/A23V)/CD155-Fc (Fc fusion)
chain 1: WPPPGTGDVVVQAPTQVPGFLGDSVTLPCYLQVPNMEVTHVSQLTWARHGESGSMAVFHQTQGPSYSESKRLEFVAARLGAELRNASLRMFGLRVEDEGNYTCLFVTFPQGSRSVDIWLRVLAKPQNTAEVQKVQLTGEPVPMARCVSTGGRPPAQITWHSDLGGMPNTSQVPGFLSGTVTVTSLWILVPSSQVDGKNVTCKVEHESFEKPQLLTVNLTVYYPPEVSISGYDNNWYLGQNEATLTCDARSNPEPTGYNWSTTMGPLPPFAVAQGAQLLIRPVDKPINTTLICNVTNALGARQAELTVQVKEGPPSEHSGISRNGGGGSGGGIWELKKDVYVVELDWYPDAPGEMVVLTCDTPEEDGITWTLDQSSEVLGSGKTLTIQVKAAGDAGQYTCHKGGEVLSHSLLLLHKKEDGIWSTDILKDQKEPKNKTFLRCEAKNYSGRFTCWWLTTISTDLTFSVKSSRGSSDPQGVTCGAATLSAERVRGDNKEYEYSVECQEDSACPAAEESLPIEVMVDAVHKLKYENYTSSFFIRDIIKPDPPKNLQLKPLKNSRQVEVSWEYPDTWSTPHSYFSLTFCVQVQGKSKREKKDRVFTDKTSATVICRKNASISVRAQDRYYSSSWSEWASVPCSGGGGSGGGSGGGGSRNLPVATPDPGMFPCLHHSQNLLRAVSNMLQKARQTLEFYPCTSEEIDHEDITKDKTSTVEACLPLELTKNESCLNSRETSFITNGSCLASRKTSFMMALCLSSIYEDLKMYQVEFKTMNAKLLMDPKRQIFLDQNMLAVIDELMQALNFNSETVPQKSSLEEPDFYKTKIKLCILLHAFRIRAVTIDRVMSYLNASGGGGSGGGDKTHTCPPCPAPEDEGGPSVFLFPPKPKDTLMISRTPEVTCVVVDVSHEDPEVKFNWYVDGVEVHNAKTKPREEQYNSTYRVVSVLTVLHQDWLNGKEYKCKVSNKALPAPIEKTISKAKGQPREPQVYVYPPSREEMTKNQVSLTCLVKGFYPSDIAVEWESNGQPENNYKTTPPVLDEDGSFALVSKLTVDKSRWQQGNVFSCSVMHEALHNHYTQKSLSLSPGK
chain 2: WPPPGTGDVVVQAPTQVPGFLGDSVTLPCYLQVPNMEVTHVSQLTWARHGESGSMAVFHQTQGPSYSESKRLEFVAARLGAELRNASLRMFGLRVEDEGNYTCLFVTFPQGSRSVDIWLRVLAKPQNTAEVQKVQLTGEPVPMARCVSTGGRPPAQITWHSDLGGMPNTSQVPGFLSGTVTVTSLWILVPSSQVDGKNVTCKVEHESFEKPQLLTVNLTVYYPPEVSISGYDNNWYLGQNEATLTCDARSNPEPTGYNWSTTMGPLPPFAVAQGAQLLIRPVDKPINTTLICNVTNALGARQAELTVQVKEGPPSEHSGISRNGGGSGQDPYVKEAENLKKYFNAGHSDVVDNGTLFLGILKNWKEESDRKIMQSQIVSFYFKLFKNFKDDQSIQKSVETIKEDMNVKFFNSNKKKRDDFEKLTNYSVTDLNVQRKAIHELIQVMAELSPAAKTGKRKRSQMLFRGGGGSGGGGSGGGGSGGGGSQDPYVKEAENLKKYFNAGHSDVVDNGTLFLGILKNWKEESDRKIMQSQIVSFYFKLFKNFKDDQSIQKSVETIKEDMNVKFFNSNKKKRDDFEKLTNYSVTDLNVQRKAIHELIQVMAELSPAAKTGKRKRSQMLFRGGGGGSGGGDKTHTCPPCPAPEKKGGPSVFLFPPKPKDTLMISRTPEVTCVVVDVSHEDPEVKFNWYVDGVEVHNAKTKPREEQYNSTYRVVSVLTVLHQDWLNGKEYKCKVSNKALPAPIEKTISKAKGQPREPQVYVLPPSREEMTKNQVSLLCLVKGFYPSDIAVEWESNGQPENRYMTWPPVLDSDGSFFLYSKLTVDKSRWQQGNVFSCSVMHEALHNHYTQKSLSLSPGK
Turning to B1, in test [1], the “IFN-γ signal transduction, HEK-IFN-γ” value was less than 0.2%. Also, the “IL-12 signal transduction, HEK-IL-12-TIGIT” value in test [2] turned out to be 40%. Further, the “IL-12 signal transduction, HEK-IL-12” value in test [3] is less than 0.2%.

B2: IFN-γ(A23V/A23V)/CD155-Fc (Fc fusion)
chain 1: WPPPGTGDVVVQAPTQVPGFLGDSVTLPCYLQVPNMEVTHVSQLTWARHGESGSMAVFHQTQGPSYSESKRLEFVAARLGAELRNASLRMFGLRVEDEGNYTCLFVTFPQGSRSVDIWLRVLAKPQNTAEVQKVQLTGEPVPMARCVSTGGRPPAQITWHSDLGGMPNTSQVPGFLSGTVTVTSLWILVPSSQVDGKNVTCKVEHESFEKPQLLTVNLTVYYPPEVSISGYDNNWYLGQNEATLTCDARSNPEPTGYNWSTTMGPLPPFAVAQGAQLLIRPVDKPINTTLICNVTNALGARQAELTVQVKEGPPSEHSGISRNGGGGSGGGDKTHTCPPCPAPEDEGGPSVFLFPPKPKDTLMISRTPEVTCVVVDVSHEDPEVKFNWYVDGVEVHNAKTKPREEQYNSTYRVVSVLTVLHQDWLNGKEYKCKVSNKALPAPIEKTISKAKGQPREPQVYVYPPSREEMTKNQVSLTCLVKGFYPSDIAVEWESNGQPENNYKTTPPVLDEDGSFALVSKLTVDKSRWQQGNVFSCSVMHEALHNHYTQKSLSLSPGK
chain 2: WPPPGTGDVVVQAPTQVPGFLGDSVTLPCYLQVPNMEVTHVSQLTWARHGESGSMAVFHQTQGPSYSESKRLEFVAARLGAELRNASLRMFGLRVEDEGNYTCLFVTFPQGSRSVDIWLRVLAKPQNTAEVQKVQLTGEPVPMARCVSTGGRPPAQITWHSDLGGMPNTSQVPGFLSGTVTVTSLWILVPSSQVDGKNVTCKVEHESFEKPQLLTVNLTVYYPPEVSISGYDNNWYLGQNEATLTCDARSNPEPTGYNWSTTMGPLPPFAVAQGAQLLIRPVDKPINTTLICNVTNALGARQAELTVQVKEGPPSEHSGISRNGGGSGQDPYVKEAENLKKYFNAGHSDVVDNGTLFLGILKNWKEESDRKIMQSQIVSFYFKLFKNFKDDQSIQKSVETIKEDMNVKFFNSNKKKRDDFEKLTNYSVTDLNVQRKAIHELIQVMAELSPAAKTGKRKRSQMLFRGGGGSGGGGSGGGGSGGGGSQDPYVKEAENLKKYFNAGHSDVVDNGTLFLGILKNWKEESDRKIMQSQIVSFYFKLFKNFKDDQSIQKSVETIKEDMNVKFFNSNKKKRDDFEKLTNYSVTDLNVQRKAIHELIQVMAELSPAAKTGKRKRSQMLFRGGGGGSGGGDKTHTCPPCPAPEKKGGPSVFLFPPKPKDTLMISRTPEVTCVVVDVSHEDPEVKFNWYVDGVEVHNAKTKPREEQYNSTYRVVSVLTVLHQDWLNGKEYKCKVSNKALPAPIEKTISKAKGQPREPQVYVLPPSREEMTKNQVSLLCLVKGFYPSDIAVEWESNGQPENRYMTWPPVLDSDGSFFLYSKLTVDKSRWQQGNVFSCSVMHEALHNHYTQKSLSLSPGK
Turning to B2, in test [1], the “IFN-γ signal transduction, HEK-IFN-γ” value is less than 0.2%.
